The values below come from patent US20200140504A1 (GENESEN, published 2020).

Primed or numbered codes have the meaning given here. Ends that are not written are not given here. FITC′ = fluorescein isothiocyanate

Assay [1] addresses T1, Toll-like receptor 4 (TLR4), human (human, UniProt O00206 24-839).
T1 construct: whole, on cells; also called hTLR4; human TLR4
The assay can be described thus: conclusion of Experimental Example 8 (SPR on TIR-domain peptides, data not given; confocal microscopy).

Assay [2] addresses T2, MyD88 (myeloid differentiation 88), in THP1 human monocytes (human, UniProt Q99836 1-296).
T2 construct: whole, on cells; Endogenous intracellular protein seen by immunofluorescence; Species follows from the THP1 human cells
The experiment in a line: confocal immunofluorescence, THP1 cells treated with TIP1-FITC and LPS. The protocol: (§1) RAW 264.7 cells and THP1 cells were dispensed into 24-well plates to a cell number of 2×10⁵ cells/well, and then grown in an incubator overnight. Subsequently, combined treatment with TIP1 and LPS was performed. After 24 hours, the RAW 264.7 cells and the THP1 cells were fixed with 3.7% formaldehyde (Sigma-Aldrich Co. LLC) for 15 minutes, and immersed into 0.2% Triton X-100 (AMRESCO, Solon, Ohio, USA) for 15 minutes. Then, washing with PBS was performed three times and blocking with 2% BSA solution was performed. […] Subsequently, the cells were stained at room temperature for 15 minutes using 5 μM Hoechst 33258 (Sigma-Aldrich Co.), and the number of the fluorescently stained cells was counted using a confocal laser scanning microscope (LSM-700, Carl Zeiss MicroImaging GmbH). The images were analyzed using Zen 2009 software.
(§2) In addition, in order to identify binding of TIP1 to TLR4, TIP1-FITC was prepared by binding fluorescein isothiocyanate (FITC) to the N-terminus of TIP1. The THP1 cells in Example 1-2 were subjected to treatment with TIP1 (TIP1-FITC) or to combined treatment with LPS and TIP1, and then the number of fluorescently stained cells were counted using immunofluorescent staining and a confocal microscope according to the method described in Examples 2-4, thereby analyzing interactions between the proteins. […]

Assay [3] has as its target T1, Toll-like receptor 4 (TLR4), human. The experiment in a line: confocal laser scanning microscopy, THP1 cells treated with TIP1-FITC with or without LPS. As for the experimental part: as §1, §2

T1 sequence (O00206 24-839): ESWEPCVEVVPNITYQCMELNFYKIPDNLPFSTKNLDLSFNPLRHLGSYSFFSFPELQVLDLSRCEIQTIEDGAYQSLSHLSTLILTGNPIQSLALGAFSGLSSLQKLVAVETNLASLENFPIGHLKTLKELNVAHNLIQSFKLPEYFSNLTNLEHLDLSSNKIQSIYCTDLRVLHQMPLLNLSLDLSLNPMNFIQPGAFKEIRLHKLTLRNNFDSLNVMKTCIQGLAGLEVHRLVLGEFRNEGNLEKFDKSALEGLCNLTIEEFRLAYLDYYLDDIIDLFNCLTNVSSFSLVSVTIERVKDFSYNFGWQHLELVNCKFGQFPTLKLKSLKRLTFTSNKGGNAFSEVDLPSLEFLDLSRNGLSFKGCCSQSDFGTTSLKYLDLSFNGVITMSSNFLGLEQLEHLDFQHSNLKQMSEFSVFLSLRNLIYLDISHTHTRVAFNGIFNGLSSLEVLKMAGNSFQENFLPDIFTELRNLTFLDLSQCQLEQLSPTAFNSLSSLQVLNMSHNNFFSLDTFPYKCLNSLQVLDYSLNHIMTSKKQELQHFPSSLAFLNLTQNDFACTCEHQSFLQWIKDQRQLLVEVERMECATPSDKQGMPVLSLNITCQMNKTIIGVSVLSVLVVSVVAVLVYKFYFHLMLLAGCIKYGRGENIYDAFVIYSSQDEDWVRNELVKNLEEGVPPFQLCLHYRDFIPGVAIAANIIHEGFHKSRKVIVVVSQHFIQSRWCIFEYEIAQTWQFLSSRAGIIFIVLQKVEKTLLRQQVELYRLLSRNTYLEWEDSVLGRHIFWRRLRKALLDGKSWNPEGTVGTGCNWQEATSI
T2 sequence (Q99836 whole entry): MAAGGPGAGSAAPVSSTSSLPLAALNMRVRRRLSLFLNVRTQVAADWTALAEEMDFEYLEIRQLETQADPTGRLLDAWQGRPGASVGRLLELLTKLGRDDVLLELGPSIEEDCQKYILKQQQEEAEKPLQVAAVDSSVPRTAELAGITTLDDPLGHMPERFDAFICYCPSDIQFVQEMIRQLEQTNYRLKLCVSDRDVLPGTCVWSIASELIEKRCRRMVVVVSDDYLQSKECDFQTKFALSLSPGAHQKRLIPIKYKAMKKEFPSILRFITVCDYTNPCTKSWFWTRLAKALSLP

As to RQIKIWFQNRRMKWKKSHCRVLLI [TIP1 (Toll-like receptor inhibitory peptide 1)], in assay [1], the binding result is “binds”.

B1: TIP1-FITC (peptide)
peptide: {FITC′}-RQIKIWFQNRRMKWKKSHCRVLLI
notes: used for confocal microscopy; also called TIP1 (TIP1-FITC)
Consider B1, for which the binding result in assay [2] and in assay [3] was “binds” throughout.
